Experimental findings from the supplement of paper PMC7877785 are described below.

± gives the uncertainty stated by the source.

This data set can be described thus: self-splicing fitness, log relative to wild type (ln ratio); higher = more splicing; Tetrahymena group I intron in knt gene, E. coli kanamycin selection, DiMSum; sequences stand for … in CUCUCU…GGAGGGAAAAGUUAUCAGGCAUGCACCUGGUAGCUAGUCUUUAAACCAAUAGAUUGCAUCGGUUUAAAAGGCAAGACCGUCAAAUUGCGGGAAAGGGGUCAACAGCCGUUCAGUACCAAGUCUCAGGGGAAACUUUGAGAUGGCCUUGCAAAGGGUAUGGUAAUAAGCUGACGGACAUGGUCCUAACCACGCAGCCAAGUCCUAAGUCAACAGAUCUUCUGUUGAUAUGGAUGCAGUUCACAGACUAAAUGUCGGUCGGGGAAGAUGUAUUCUUCUCAUAAGAUAUAGUCGGACCUCUCCUUAAUGGGAGCUAGCGGAUGAAGUGAUGCAACACUGGAGCCGCUGGGAACUAAUUUGUAUGCGAAAGUAUAUUGAUUAGUUUUGGAGUACUCGUGGUCG
The essentials:
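Pooled colonies went to amplicon sequencing on an Illumina HiSeq 2500 after six replicate transformations. The plates were LB agar with 100 μg/mL carbenicillin, 50 μM IPTG and 0.2% rhamnose, with or without 25 μg/mL kanamycin, incubated overnight at 37°C or 30°C. The E. coli BL21(DE3) library had all eight P1ex-region intron nucleotides randomised, the intron placed in the knt kanamycin-resistance gene on pET-22b(+). DiMSum fitness is the error-weighted combination of replicate fold changes, kanamycin against none, normalised to wild type.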

Regarding AGGGAGCAAUAUUACGGGCU, the “self-splicing fitness (ln)” value reads like this: (30 °C) -3.05 ± 0.27; (37 °C) -2.49 ± 0.3. The matching figures for AGUGAGCAAUAUUACGAUAC: -3.02 ± 0.22 and -2.47 ± 0.34. The matching figures for GCACAGCAAUAUUACGGCAU: -1.59 ± 0.095 and -0.16 ± 0.091. As to UAGUAGCAAUAUUACGAUAA, the “self-splicing fitness (ln)” value reads like this: (30 °C) -3.02 ± 0.36; (37 °C) -1.18 ± 0.2. As to GCACAGCAAUAUUACGCCGU, the “self-splicing fitness (ln)” value was -1.51 ± 0.1 (30 °C) and 0.145 ± 0.14 (37 °C). For UUAGAGCAAUAUUACGGAGC, the “self-splicing fitness (ln)” value was -3.62 ± 0.29 (30 °C) and -2.31 ± 0.22 (37 °C). For CUUAAGCAAUAUUACGCUCG, in that order: -2.09 ± 0.22 and 0.521 ± 0.29. For CCCAAGCAAUAUUACGUUCC, in that order: -3.87 ± 0.37 and -2.3 ± 0.37. As to CCAAAGCAAUAUUACGGUUC, the “self-splicing fitness (ln)” value reads like this: (30 °C) -2.91 ± 0.12; (37 °C) -2.34 ± 0.2. In the case of UUAUAGCAAUAUUACGAUAU, the “self-splicing fitness (ln)” value by setting is: (30 °C) -1.97 ± 0.13; (37 °C) -0.578 ± 0.17. For UGGCAGCAAUAUUACGGAGA, in that order: -2.9 ± 0.42 and -1.46 ± 0.41.

Regarding CAUAAGCAAUAUUACGAGAC, under “30 °C”, the “self-splicing fitness (ln)” value was -3.9 ± 0.37. Take UCUAAGCAAUAUUACGUAGU: the “self-splicing fitness (ln)” value (30 °C) was -0.857 ± 0.05 and the “self-splicing fitness (ln)” value (37 °C) was -0.481 ± 0.069. For GCACAGCAAUAUUACGACCC, the “self-splicing fitness (ln)” value is 0.615 ± 0.18 (30 °C) and 0.472 ± 0.25 (37 °C). As for GAAAAGCAAUAUUACGGCGG, the “self-splicing fitness (ln)” value is -1.86 ± 0.1 (30 °C) and -1.59 ± 0.1 (37 °C).

Regarding CAUUAGCAAUAUUACGAAUG, the “self-splicing fitness (ln)” value (30 °C) is -2.67 ± 0.19 and the “self-splicing fitness (ln)” value (37 °C) was -2.28 ± 0.3. The matching figures for GUCAAGCAAUAUUACGUGUG: -2.69 ± 0.068 and -1.61 ± 0.071. For CACUAGCAAUAUUACGAACG, in that order: -0.448 ± 0.071 and 0.647 ± 0.11.

Turning to CUCGAGCAAUAUUACGAAAA, the “self-splicing fitness (ln)” value (30 °C) was -1.93 ± 0.44. CAUUAGCAAUAUUACGUGAA: the “self-splicing fitness (ln)” value (30 °C) was -2.94 ± 0.21 and the “self-splicing fitness (ln)” value (37 °C) is -3.18 ± 0.29. Turning to CUAGAGCAAUAUUACGUGUC, the “self-splicing fitness (ln)” value reads like this: (30 °C) -4.02 ± 0.3; (37 °C) -2.88 ± 0.26. For CAAAAGCAAUAUUACGUGCG, in that order: -1 ± 0.051 and -0.35 ± 0.063. As to CAAAAGCAAUAUUACGAAGG, the “self-splicing fitness (ln)” value reads like this: (30 °C) -1.87 ± 0.11; (37 °C) -0.758 ± 0.13. With CAAAAGCAAUAUUACGAGCG, the “self-splicing fitness (ln)” value runs as follows: (30 °C) -0.129 ± 0.077; (37 °C) 0.342 ± 0.097. For UUUAAGCAAUAUUACGGCUG, the “self-splicing fitness (ln)” value is, setting by setting: (30 °C) -0.528 ± 0.13; (37 °C) -0.292 ± 0.16. GCCGAGCAAUAUUACGACGG: the “self-splicing fitness (ln)” value is, setting by setting: (30 °C) -3.78 ± 0.23; (37 °C) -2.76 ± 0.28. The matching figures for UAUCAGCAAUAUUACGUAUU: -0.834 ± 0.078 and -0.815 ± 0.094. The matching figures for UAUGAGCAAUAUUACGCCUU: -3.19 ± 0.29 and -2.11 ± 0.34. For GUUGAGCAAUAUUACGGAUG, in that order: -3.56 ± 0.42 and -1.75 ± 0.36.

As to UGCGAGCAAUAUUACGUUGC, the “self-splicing fitness (ln)” value (37 °C) is -1.17 ± 0.33. On to CGUCAGCAAUAUUACGAGCG, for which the “self-splicing fitness (ln)” value is -3.52 ± 0.15 (30 °C) and -1.04 ± 0.15 (37 °C). For GACCAGCAAUAUUACGUUCG, the “self-splicing fitness (ln)” value is, setting by setting: (30 °C) -2.05 ± 0.073; (37 °C) -0.063 ± 0.074. The matching figures for UAAAAGCAAUAUUACGAUGU: -2.44 ± 0.15 and -1.33 ± 0.19.

Regarding GUGAAGCAAUAUUACGCCAG, the “self-splicing fitness (ln)” value is -1.09 ± 0.2 (30 °C) and -1.1 ± 0.22 (37 °C). The matching figures for UUCAAGCAAUAUUACGCGCU: -1.69 ± 0.12 and -1.44 ± 0.13. For AUCGAGCAAUAUUACGCAUU, in that order: -1.6 ± 0.24 and -3.11 ± 0.3. The matching figures for GGGCAGCAAUAUUACGAGCA: -1.98 ± 0.1 and -1.37 ± 0.11. As for UUAGAGCAAUAUUACGACGU, the “self-splicing fitness (ln)” value was -2.39 ± 0.17 (30 °C) and -0.776 ± 0.21 (37 °C). As to GCGUAGCAAUAUUACGAGAG, the “self-splicing fitness (ln)” value is -3.3 ± 0.28 (30 °C) and -3.27 ± 0.33 (37 °C). For the sequence UCUAAGCAAUAUUACGACUC, the “self-splicing fitness (ln)” value (30 °C) was -3.61 ± 0.48 and the “self-splicing fitness (ln)” value (37 °C) was -2.43 ± 0.42. For AAGAAGCAAUAUUACGCAUA, in that order: -1.29 ± 0.11 and -0.0901 ± 0.12.

As to UCAUAGCAAUAUUACGGAUU, the “self-splicing fitness (ln)” value runs as follows: (30 °C) -3.52 ± 0.12; (37 °C) -3.06 ± 0.16. For GUACAGCAAUAUUACGCGGA, in that order: -2.49 ± 0.21 and -0.988 ± 0.15. On to UUAAAGCAAUAUUACGGUCC, for which the “self-splicing fitness (ln)” value (37 °C) was -1.2 ± 0.36. As to UAGGAGCAAUAUUACGGGUU, the “self-splicing fitness (ln)” value (30 °C) was -4.52 ± 0.42 and the “self-splicing fitness (ln)” value (37 °C) is -2.56 ± 0.27. For the sequence GCCGAGCAAUAUUACGGGUG, the “self-splicing fitness (ln)” value was -0.694 ± 0.067 (30 °C) and -0.014 ± 0.075 (37 °C).

For UUAAAGCAAUAUUACGCUUU, the “self-splicing fitness (ln)” value (30 °C) is -4.36 ± 0.35 and the “self-splicing fitness (ln)” value (37 °C) is -1.94 ± 0.24.

Consider GACAAGCAAUAUUACGAGUU, for which the “self-splicing fitness (ln)” value is -3.7 ± 0.15 (30 °C) and -2.3 ± 0.16 (37 °C). For UCUUAGCAAUAUUACGAGGU, in that order: -3.29 ± 0.29 and -1.82 ± 0.2. For AAAAAGCAAUAUUACGGGAA, in that order: -2.09 ± 0.13 and -1.82 ± 0.13.

On to CAACAGCAAUAUUACGCCAU, for which the “self-splicing fitness (ln)” value reads like this: (30 °C) -3.25 ± 0.11; (37 °C) -2.94 ± 0.14.

In the case of CUCGAGCAAUAUUACGGUUG, the “self-splicing fitness (ln)” value is -3.73 ± 0.13 (30 °C) and -2.07 ± 0.13 (37 °C).

Take CUUGAGCAAUAUUACGAACU: the “self-splicing fitness (ln)” value reads like this: (30 °C) -4.03 ± 0.46; (37 °C) -2.09 ± 0.32.

With AGUAAGCAAUAUUACGGGCA, the “self-splicing fitness (ln)” value was -0.89 ± 0.15 (30 °C) and -0.468 ± 0.19 (37 °C). For AGCUAGCAAUAUUACGUAAA, in that order: -3.11 ± 0.19 and -1.14 ± 0.16. For AUGCAGCAAUAUUACGGCUC, in that order: -0.408 ± 0.1 and -0.0582 ± 0.13.

For CCGCAGCAAUAUUACGUGUA, the “self-splicing fitness (ln)” value reads like this: (30 °C) -3.25 ± 0.17; (37 °C) -1.38 ± 0.13.

As to AGGCAGCAAUAUUACGGGCA, the “self-splicing fitness (ln)” value was -1.39 ± 0.2 (30 °C) and -0.422 ± 0.17 (37 °C). With CAGAAGCAAUAUUACGUCCA, the “self-splicing fitness (ln)” value is -1.68 ± 0.14 (30 °C) and -1.44 ± 0.21 (37 °C). The matching figures for GAUCAGCAAUAUUACGCUGA: -3.83 ± 0.37 and -1.33 ± 0.21. For GCUUAGCAAUAUUACGCCCU, in that order: -1.54 ± 0.11 and -0.719 ± 0.13. As to CCGUAGCAAUAUUACGGUGG, the “self-splicing fitness (ln)” value reads like this: (30 °C) -2.59 ± 0.16; (37 °C) -1.1 ± 0.17. The matching figures for AGGAAGCAAUAUUACGGCGC: -0.231 ± 0.11 and -0.104 ± 0.15. Turning to CUAUAGCAAUAUUACGUGUG, the “self-splicing fitness (ln)” value (30 °C) is -1.04 ± 0.079 and the “self-splicing fitness (ln)” value (37 °C) was -0.474 ± 0.096. For UAGUAGCAAUAUUACGUAGC, in that order: -3.52 ± 0.22 and -1.37 ± 0.2.

In the case of UAGUAGCAAUAUUACGACGU, the “self-splicing fitness (ln)” value is -1.23 ± 0.11 (30 °C) and -0.175 ± 0.095 (37 °C). GGCAAGCAAUAUUACGAGUG: the “self-splicing fitness (ln)” value is -1.1 ± 0.069 (30 °C) and -0.88 ± 0.071 (37 °C). In the case of GUAGAGCAAUAUUACGCGGG, the “self-splicing fitness (ln)” value was -2.65 ± 0.15 (30 °C) and -1.43 ± 0.17 (37 °C). The matching figures for CGCAAGCAAUAUUACGAGUA: -2.53 ± 0.14 and -0.869 ± 0.096. The matching figures for CCGCAGCAAUAUUACGCAGA: -2.89 ± 0.2 and -2.25 ± 0.17. Take UGGGAGCAAUAUUACGUCCU: the “self-splicing fitness (ln)” value (37 °C) was -1.3 ± 0.26. GGGAAGCAAUAUUACGCGCG: the “self-splicing fitness (ln)” value is, setting by setting: (30 °C) -0.57 ± 0.13; (37 °C) -0.552 ± 0.14. The matching figures for AUAAAGCAAUAUUACGUGUA: -1.55 ± 0.069 and -0.325 ± 0.089. For AGGCAGCAAUAUUACGACCA, in that order: -0.404 ± 0.11 and 0.544 ± 0.17. Regarding GUAUAGCAAUAUUACGUAGA, the “self-splicing fitness (ln)” value (37 °C) was -2.07 ± 0.32.

Turning to UUGGAGCAAUAUUACGCGGA, the “self-splicing fitness (ln)” value (37 °C) is -1.08 ± 0.36. With UAGUAGCAAUAUUACGAUUU, the “self-splicing fitness (ln)” value was -1.45 ± 0.1 (30 °C) and -0.988 ± 0.12 (37 °C).
